Values quoted from earlier work, collected in paper PMC6557524.

Target: CCR2 (UniProt P41597)
UniProt P41597, sequence (P41597 whole entry): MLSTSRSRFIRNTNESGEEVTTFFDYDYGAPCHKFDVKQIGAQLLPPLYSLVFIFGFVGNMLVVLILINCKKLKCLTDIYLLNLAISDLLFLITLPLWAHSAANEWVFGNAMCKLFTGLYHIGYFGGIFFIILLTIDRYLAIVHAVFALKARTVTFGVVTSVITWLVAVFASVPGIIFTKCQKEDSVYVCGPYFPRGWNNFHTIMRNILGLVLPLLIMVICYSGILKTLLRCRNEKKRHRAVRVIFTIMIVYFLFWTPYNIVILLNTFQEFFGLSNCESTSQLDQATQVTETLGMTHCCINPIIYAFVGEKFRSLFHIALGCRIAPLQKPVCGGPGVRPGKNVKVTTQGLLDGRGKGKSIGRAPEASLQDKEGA

CCL2 (from UniProt P13500)
Kd: 2.1 nM
